These results are taken from paper PMC10550236.

For experiment [1], the target named is Fem proteins (Apis mellifera). Briefly: SDS-PAGE under oligomer-forming (very low denaturation) conditions with Western blot; complexation of Fem proteins (fig. S6); the text does not name the method, taken from the experiments on Csd that precede it. (In western blotting, separated proteins are transferred to a membrane and probed.)
Experiment [2] concerns the target CC^DD, CC fragment with glutamic acid replaced with aspartic acid at two core hydrophilic positions (Apis mellifera). Description: SDS-PAGE under oligomer-forming (very low denaturation) conditions with Western blot; myc-tagged proteins translated in reticulocyte lysate; native loading buffer with no SDS; 0.01% SDS in the gel, 0.15% SDS as running buffer; anti-myc detection; complexes and monomers quantified by chemiluminescence.

By stoichiometry N is commonly meant a count of units in the complex or per binding partner.

In experiment [1], Fem proteins (natural protein) displayed a stoichiometry N of 3.
For the substance “CC^DD, CC fragment with glutamic acid replaced with aspartic acid at two core hydrophilic positions”, the reduction of homotrimer formation compared to the WT in experiment [2] was 50 to 90%.
